Reference: FireProtDB (doi:10.1021/bi00116a007)

B1: Aspartate aminotransferase, P00509 (parent)
chain: MFENITAAPADPILGLADLFRADERPGKINLGIGVYKDETGKTPVLTSVKKAEQYLLENETTKNYLGIDGIPEFGRCTQELLFGKGSALINDKRARTAQTPGGTGALRVAADFLAKNTSVKRVWVSNPSWPNHKSVFNSAGLEVREYAYYDAENHTLDFDALINSLNEAQAGDVVLFHGCCHNPTGIDPTLEQWQTLAQLSVEKGWLPLFDFAYQGFARGLEEDAEGLRAFAAMHKELIVASSYSKNFGLYNERVGACTLVAADSETVDRAFSQMKAAIRANYSNPPAHGASVVATILSNDALRAIWEQELTDMRQRIQRMRQLFVNTLQEKGANRDFSFIIKQNGMFSFSGLTKEQVLRLREEFGVYAVASGRVNVAGMTPDNMAPLCEAIVAVL

Variants of: B1
Details: Escherichia coli (strain K12); pH 7.5; 25 °C; Urea; DSC; potassium-HEPES 40 mM; reversible: yes; structure 1AMQ; whole UniProt chain shown

| Variant | ddG of mutation (higher = less stable) [kcal/mol] | denaturant m value [kcal/mol/M] | denaturant midpoint (higher = more stable) [M] | unfolding free energy [kcal/mol] |
| --- | --- | --- | --- | --- |
| C180A | 2.2 | 2 | 3.87 | 7.74 |
| C180S | 1.8 | 2.38 | 3.41 | 8.12 |
| C77A | 1.3 | 2.13 | 4.06 | 8.67 |
| C77A C180A C181A C258A C389A | 1 | 2.83 | 3.16 | 8.92 |
| C258A | 2.5 | 2.14 | 3.51 | 7.5 |
| C181A | 1.6 | 2.35 | 3.53 | 8.32 |
| C389A | -3.2 | 3.87 | 3.41 | 13.2 |
